What was measured:
Test in all cases: specificity test of the expressed monobodies (method not named)
[1] = target: human Cyclin-Dependent Kinase 2 (human, UniProt P24941 1-298)
BSA = BSA (UniProt P02769 25-607)
CDC34 = target: T1, CDC34 (UniProt P49427 1-236, limits assumed)
T1 sequence (looked up): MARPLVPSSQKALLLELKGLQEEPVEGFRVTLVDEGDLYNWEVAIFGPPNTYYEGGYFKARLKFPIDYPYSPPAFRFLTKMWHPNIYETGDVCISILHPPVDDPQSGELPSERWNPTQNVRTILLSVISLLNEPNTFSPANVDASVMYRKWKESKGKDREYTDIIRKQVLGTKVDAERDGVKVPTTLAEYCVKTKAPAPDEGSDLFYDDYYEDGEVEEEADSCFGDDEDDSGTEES

Measured: binding result

Chain of BSA (P02769 25-607 limits assumed): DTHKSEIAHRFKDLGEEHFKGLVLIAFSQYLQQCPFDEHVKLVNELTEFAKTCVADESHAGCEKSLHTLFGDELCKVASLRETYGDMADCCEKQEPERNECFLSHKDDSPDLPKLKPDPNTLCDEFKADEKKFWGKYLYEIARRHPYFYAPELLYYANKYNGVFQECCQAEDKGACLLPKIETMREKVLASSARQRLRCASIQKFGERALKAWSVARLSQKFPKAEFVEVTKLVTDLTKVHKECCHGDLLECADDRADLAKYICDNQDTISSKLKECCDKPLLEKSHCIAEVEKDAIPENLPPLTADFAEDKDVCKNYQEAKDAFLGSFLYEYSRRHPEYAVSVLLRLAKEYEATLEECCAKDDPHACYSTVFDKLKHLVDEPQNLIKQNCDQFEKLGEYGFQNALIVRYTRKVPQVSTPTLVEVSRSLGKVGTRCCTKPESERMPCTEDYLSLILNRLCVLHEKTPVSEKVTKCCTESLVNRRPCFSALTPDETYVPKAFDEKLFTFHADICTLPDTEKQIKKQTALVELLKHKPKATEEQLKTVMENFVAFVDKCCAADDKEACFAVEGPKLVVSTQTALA

B1: anti-MAP2K5 FN3 monobody clone G4 (designed binder)
chain: MAVSDVPRKLEVVAATPTSLLISWDQDQVYYYRIRYGETGGNSPVQEFTVPGSKSTATISGLKPGVDYTITVYAVTGTSYAYIISINYRI
notes: FN3 (tenth type III domain of fibronectin) monobody from the PExSR selection; It was cloned into the pET14b-SUMO E. coli expression vector (SUMO fusion, purified on His60 resin) for characterisation; also called anti-MAP2K5 clone G4
no binding: [1] | BSA | CDC34

B2: anti-MAP2K5 FN3 monobody clone H1 (designed binder)
chain: MAVSDVPRKLEVVAATPTSLLISWDPYWFSGLYYRITYGETGGNSPVQEFTVPGSKSTATISGLKPGVDYTITVYAVTYYSWGYLVGEIISINYRI
notes: FN3 monobody from the PExSR selection; For the specificity test it was expressed as a SUMO fusion from pET14b-SUMO; also called Anti-MAP2K5 H1
no binding: [1] | BSA | CDC34
